# Assay results reported in the nanobody polyreactivity screen of Harvey et al. (2022).
# Assay: yeast display, Sf9 membrane polyspecificity reagent, FACS + sequencing; frameworks hold sequencing errors
# Method in brief: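 Nanobodies from a synthetic yeast display library (Saccharomyces cerevisiae BJ5465), induced 36–48 hours with galactose, were stained 1 hour at 4 °C with 10% biotinylated, detergent-solubilized Sf9 membrane reagent, enriched on streptavidin microbeads, then FACS-sorted. Anti-HA (expression) and streptavidin (reagent binding) fluorescence set low and high (top ~1%) gates. Polyreactivity labels come from the gate of origin. Genes were colony-PCR amplified, MiSeq 2 × 250 sequenced and filtered by CDR length.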
row,Sequence,polyreactivity (PSR sort gate)
1,QVQLEESGGGLVQAGGSLRLSCAASGRIFPYYPMGWYRQAPGKETELVATISGGGSTYYADSVKGRFTISRDNAKNTFYLQMNSLKPEDTAVYYCSARSWLRWASTPQWYRYEYWGQGTQVTVSS,low polyreactivity
2,QVQLEESGGGLVQAGGSLRLSCAASGRIFRPNAMGWYRQAPGKERELVAAISSGGSTYYADSVKGRFTISRDNAKNTVYLQMNSLKPEDTAVYYCAARSRGYDIRYGYWGQGTQVTVSS,high polyreactivity
3,QVQLEESGGGLVQAGGSLRLSCAASGRIFSSYAMGWYRQAPGKERELVAAISSSGGRTYYADSVKGRFTISRDNAKNSVYLQMNSLKPEDTAVYYCARVTTGGYEYWGQGTQVTVSS,high polyreactivity
4,QVQLEESGGGLVQAGGSLRLSCAASGRIFWWYGMGWYREAPGKERELVASITYSGVSTYYADSVKGRFTISRDNAKNTVYLQMNSLTPEDTAVYYCAADRSRYFSYKYDYWGQGTQVTVSS,high polyreactivity
5,QVQLEESGGGLVQAGGSLRLSCAASGRIFYRYAMGWYRQAPGKERELVAAISWSGGSTNYADSVRGRFTISRDNAKNTVYLQMNSLKPEDTAVYYCAAKYRSIRESATYYYWGQGTQVTVSS,high polyreactivity
6,QVQLEESGGGLVQAGGSLRLSCAASGRIHVYTMGWSRQAPGKERELVATITWSGTSTNYADSVKGRFTISRDNAKNTVYFQMNSLKPEDTAVYYCAADISGVLSVSNVRGFDYWGQGTQVTVSS,low polyreactivity
7,QVQLEESGGGLVQAGGSLRLSCAASGRNFTYNTMGWYRQAPGKERELVAAITSGGSTYYADSVKGRFTSSRDNAKNTVYLQMNSLKPEDTAVYYCAKRSWAYTDYFVSEYYWGQGTQVTVSS,high polyreactivity
8,QVQLEESGGGLVQAGGSLRLSCAASGRNFYYNAIGWYRQAPGKERELVATITRAGGTYYADSVKGRFTISRDNAKNTVYLQMNSLKPEDTAVYYCAKRHPIVDDYKGDYWGQGTQVTVSS,low polyreactivity
9,QVQLEESGGGLVQAGGSLRLSCAASGRNISRNAMGGYRQPPGKERELVAAITQSGTSTYYADSVKGRFTLSRDNAKNTVYLQMKSLIPEDTAVYYCNAYRQYRYDYWGQGSQVTVSS,low polyreactivity
10,QVQLEESGGGLVQAGGSLRLSCAASGRTFKLNAMGWYRQAPGKERELVAAISRNGGSTYYADSVKGRFTISRDNAKNTVYLQMNSLKPEDTAVYYCAAVRHGVSLAGYYWGQGTQVTVSS,high polyreactivity
11,QVQLEESGGGLVQAGGSLRLSCAASGRTFYIYVMGWYRPAPGKERELVASITKRVGGTFYADSVKGRFTISGDNAKNTVYLQMNSLKPEDTAVYYCNARARKSIRVGGYNYWGQGTQVTVSS,high polyreactivity
12,QVQLEESGGGLVQAGGSLRLSCAASGRTFYPNAMGWYRQAPGKERELVAAITRSGGRTYYADSVKGRFTISRDNAYYTVYLQMNSLKPEDSAVYYCNADLYYLYYKYEYWGQGTQVTVSS,low polyreactivity
13,QVQLEESGGGLVQAGGSLRLSCAASGSIFFSYAMGWYRQAPGKERELVAAISSGGSTYYADSVKGRFTISRDNAKNTVYLQMNSLKPEDTAVYYCAARGYRLVPVDFYYWGQGTQVTVSS,low polyreactivity
14,QVQLEESGGGLVQAGGSLRLSCAASGSIFGFYMGWDRQAPRKEREMVAAISGSGGNTYYADSVKGRFTISRDNAKNTVYLQMNSQKPEDNAVYYCAARGYVWNIGRYYWGQGTQVTVSW,high polyreactivity
15,QVQLEESGGGLVQAGGSLRLSCAASGSIFHYYTMGWYRQAPGKERELVAAITSSGGSTYYADSVKGRFTISRDNAKNTVYLQMNSLKPEDTAVYYCNKVRYRGYLYVPIYVGYNYWGQGTQVTVSS,high polyreactivity
16,QVQLEESGGGLVQAGGSLRLSCAASGSIFNRYAMGWYRQAPGKEWELVAAISRSGGRTYYADSVKGRFTISRDNAKNTVYLQMNSLKPEDTAVYYCAADKYYRQHEYDYLGQGTQVTVSS,high polyreactivity
17,QVQLEESGGGLVQAGGSLRLSCAASGSIFPHYAMRWNRQAPGKERELVAAISRSGTSTYYADSVKGRFPISRDNAKNTVYLQMNSLKPEHTAVYYCNAYQVYTRTYGYWGQGTQVTVSS,high polyreactivity
18,QVQLEESGGGLVQAGGSLRLSCAASGSIFRKYAMVSYRQAPGKERELVAAIRSSGGSTYYADSVKGRFTISRDNANNTVYLQMNSLKPEDTAVYYCAARYYRPSRYDYWGQGTQVTVSS,high polyreactivity
19,QVQLEESGGGLVQAGGSLRLSCAASGSIFRRNVMGWYRQAPGKERELVAAISWSGDRTYYADSVKGRFTISRDNAKNTVYLQMNSLKPVGTAVYYCAAANASPRRYGQYDYWGQGTQVTVSS,high polyreactivity
20,QVQLEESGGGLVQAGGSLRLSCAASGSIFSPNAMGWYRQAPGKERELVAAIDTRDGTTYYADSVKGRFTISRDNAKNTVYLQMNSLKPEDTAVYYCAADQLVGERDYWGQGTQVTVSS,low polyreactivity
21,QVQLEESGGGLVQAGGSLRLSCAASGSIFSRNAMGLYRQAPGTERELVAVITRSGSTNYADSVKGRFTISRDNAKNTVYLQKKSLTPQDTAVYYCNADQDAYYLVSIATYDYWGQGTQVTVSS,low polyreactivity
22,QVQLEESGGGLVQAGGSLRLSCAASGSIFVTNVMGWYRQAPGKERELVAVINSGGRTYYADSVKGRFTISRDNAKNTVYLQMNSLKPEDTAVYYCAKDSWSSYPSLYPEFDYWGQGTQVTVSS,low polyreactivity
23,QVQLEESGGGLVQAGGSLRLSCAASGSIIWSYAMGWYRQAPGKERELVAVINWSGGSTYYADSVKGRFTISRDNAKNTVYLQMNSLKPEDTAVYYCNKDLGPTKRPFTFDYWGQGTQVTVSS,low polyreactivity
24,QVQLEESGGGLVQAGGSLRLSCAASGSISYYYGMGWYRQAPGKERELVAAISTRGGSTYYADSVKGRFTISRDNAKNTVYLQMNSLKPEDTAVYYCNKVYYKRFYYWGQGTQVTVSS,high polyreactivity
25,QVQLEESGGGLVQAGGSLRLSCAASGSIYTYTMGWYRQAPGKERELVAAISWNGGRTYYADSVKGRFTISRDNAKNTVYLQMNSLKPEDTAVYYCNAAISYSYGYWGQGTQVTVSS,high polyreactivity
26,QVQLEESGGGLVQAGGSLRLSCAASGSTFDRYGMGWYRQAHWKERELVAAINSGDITNYADSVKGRFTISRDNAKNTVYLQMNSLKPEDTAVYYCAATQSRYYSDDPYYYWGQGTQVTVSS,low polyreactivity
27,QVQLEESGGGLVQAGGSLRLSCAASGSTFKYYAMGWYRQAPGKERELVAAISWSGGSTYYADSVKGRFTISRDNAKNTVYLQMNRLKPEDTAVYYCNKLIYDEDEYWGQGTQVTVSS,high polyreactivity
28,QVQLEESGGGLVQAGGSLRLSCAASGSTFLRYAIGWYRQAPGKEMELVAAITASGGSTFYADSVKGRFTISRDYAKNTVYLQMNSLKPEDTPVYYCAADVSYIGKYSHDLWIYGYYYWGQGTQVTVSS,low polyreactivity
29,QVQLEESGGGLVQAGGSLRLSCAASGSTFSRYAMGWYRQAPGKERELVAAISSSGGGTYYADSVKGRFTISRDNAKNTVYLQMNSLKPEDTAVYYCAAKRVHGATGYWGQGTQVTVSS,high polyreactivity
30,QVQLEESGGGLVQAGGSLRLSCAASGSTFSSNVMGWYRQAPGKERELVAAITGSGSRTYYADSVKGRFTISRDNAKNTVYLQMNSLKPEDTAVYYCNTKGRSRETYGYDYWGQGTQVTVSS,high polyreactivity
